Measurements taken from patent publication US20250376519A1 (JIANGSU HENGRUI PHARMACEUTICALS, published 2025).

B1: hu110-S107E-hot Ig (bispecific antibody)
light 1: NIVMTQSPKSLAVSLGERATINCKASENVGIFVSWYQQKPGQSPKLLIYGASNRYTGVPDRFSGSGSATDFTLTISSLQAEDVADYYCGQSHSYPLTFGQGTKLEIKGGGGSSGAPRFLTRPKASVVSVGKDATLSCQIVGNPFPQVSWEKDKQPVTAGVRFRLAQDGDLYRLKILDLQLSDSGQYVCRARNAHGEAFACLGLQVDAEA
heavy 1: EVQLVQSGAEVKKPGASVKVSCKTSGYTFTDYYMNWVRQAPGQSLEWMGIINPYQGGTSYTQKFKGRVTITVDKSASTAYMELSSLRSEDTAVYYCARHFYDSSYLTYSTMDYWGQGTTVTVSSGGGGSGIPPKIECLPIDISIDEGKVLTVASAFTGEPTPEVTWSTGGRKIHSQEQGRFHIENTDDSTTLTIKDVQKQDGGLYTLTLRNEFGSDSATVNIHIRSIDKTHTCPPCPAPEAAGGPSVFLFPPKPKDTLMISRTPEVTCVVVDVSHEDPEVKFNWYVDGVEVHNAKTKPREEQYNSTYRVVSVLTVLHQDWLNGKEYKCKVSNKALPAPIEKTISKAKGQPREPQVCTLPPSREEMTKNQVSLSCAVKGFYPSDIAVEWESNGQPENNYKTTPPVLDSDGSFFLVSKLTVDKSRWQQGNVFSCSVMHEALHNHYTQKSLSLSPGK
heavy 2: not shown
light 2: not shown
notes: Format 1 (Hot-Ig, Titin/Obscurin-replaced DLL3 Fab), DLL3 x CD3
B2: hu110-I2C-hot Ig (bispecific antibody)
light 1: B1 light 1
heavy 1: B1 heavy 1
heavy 2: not shown
light 2: not shown
notes: as for B1
B3: hu110-I2C-Y body (bispecific antibody)
light: NIVMTQSPKSLAVSLGERATINCKASENVGIFVSWYQQKPGQSPKLLIYGASNRYTGVPDRFSGSGSATDFTLTISSLQAEDVADYYCGQSHSYPLTFGQGTKLEIKRTVAAPSVFIFPPSDEQLKSGTASVVCLLNNFYPREAKVQWKVDNALQSGNSQESVTEQDSKDSTYSLSSTLTLSKADYEKHKVYACEVTHQGLSSPVTKSFNRGEC
heavy: EVQLVQSGAEVKKPGASVKVSCKTSGYTFTDYYMNWVRQAPGQSLEWMGIINPYQGGTSYTQKFKGRVTITVDKSASTAYMELSSLRSEDTAVYYCARHFYDSSYLTYSTMDYWGQGTTVTVSSASTKGPSVFPLAPSSKSTSGGTAALGCLVKDYFPEPVTVSWNSGALTSGVHTFPAVLQSSGLYSLSSVVTVPSSSLGTQTYICNVNHKPSNTKVDKKVEPKSCDKTHTCPPCPAPEAAGGPSVFLFPPKPKDTLMISRTPEVTCVVVDVSHEDPEVKFNWYVDGVEVHNAKTKPREEQYNSTYRVVSVLTVLHQDWLNGKEYKCKVSNKALPAPIEKTISKAKGQPREPQVCTLPPSREEMTKNQVSLSCAVKGFYPSDIAVEWESNGQPENNYKTTPPVLDSDGSFFLVSKLTVDKSRWQQGNVFSCSVMHEALHNHYTQKSLSLSPGK
chain: not shown
notes: Format 2 (Y body: DLL3 Fab-Fc hole + CD3 scFv-Fc knob)

Molecular target: T1, human DLL3 on cells (human, UniProt Q9NYJ7 27-618)
T1 construct: Endogenous on H1184 and SHP77; Cell line is named under assay; also called H1184; DLL3/H82
T1 sequence: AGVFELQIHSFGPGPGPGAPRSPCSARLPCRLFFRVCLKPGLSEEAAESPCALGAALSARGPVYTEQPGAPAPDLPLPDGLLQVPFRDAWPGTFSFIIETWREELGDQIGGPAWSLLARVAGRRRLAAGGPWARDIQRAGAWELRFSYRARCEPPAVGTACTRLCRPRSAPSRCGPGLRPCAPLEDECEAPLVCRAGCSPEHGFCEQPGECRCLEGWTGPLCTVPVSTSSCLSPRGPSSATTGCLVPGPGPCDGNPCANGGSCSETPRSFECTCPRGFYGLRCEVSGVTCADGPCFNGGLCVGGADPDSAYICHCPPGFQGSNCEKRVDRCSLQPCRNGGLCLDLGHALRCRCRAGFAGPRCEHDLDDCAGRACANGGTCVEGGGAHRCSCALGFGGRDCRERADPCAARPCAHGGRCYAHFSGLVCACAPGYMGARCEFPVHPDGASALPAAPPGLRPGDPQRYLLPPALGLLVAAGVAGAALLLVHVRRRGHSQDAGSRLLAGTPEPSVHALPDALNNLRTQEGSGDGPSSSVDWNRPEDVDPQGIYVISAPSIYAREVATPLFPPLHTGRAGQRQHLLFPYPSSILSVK
Assay: flow cytometry, hDLL3/CHO-s cells
Protocol: (§1) The plates were centrifuged at 300 g for 5 min, and the supernatant was removed. Different concentrations of test antibodies were added at 100 μL/well. The plates were incubated in the dark in a refrigerator at 4° C. for 1 h. After 3 centrifugal washes at 300 g, working concentrations of APC anti-human IgG Fc (BioLegend, 410712) or PE F(ab′)2-goat anti-human IgG (invitrogen, H10104) were added. The plates were incubated in the dark in a refrigerator at 4° C. for 40 min. After 3 centrifugal washes at 300 g, the geometric mean fluorescence intensity was measured on an Invitrogen flow cytometer, and the EC50 values for the binding of the antibodies to DLL3-expressing cells were calculated.

| Binder | EC50 [nM] |
| --- | --- |
| B1 | 5.07 |
| B2 | 4.91 |
| B3 | 4.52 |

Molecular target: T2, cynomolgus monkey DLL3 on CHO-s cells (cynomolgus monkey, UniProt Q9NYJ7 27-618 (human entry))
T2 construct: also called cynoDLL3/CHO-s; CynoDLL3/CHO-S
T2 chain: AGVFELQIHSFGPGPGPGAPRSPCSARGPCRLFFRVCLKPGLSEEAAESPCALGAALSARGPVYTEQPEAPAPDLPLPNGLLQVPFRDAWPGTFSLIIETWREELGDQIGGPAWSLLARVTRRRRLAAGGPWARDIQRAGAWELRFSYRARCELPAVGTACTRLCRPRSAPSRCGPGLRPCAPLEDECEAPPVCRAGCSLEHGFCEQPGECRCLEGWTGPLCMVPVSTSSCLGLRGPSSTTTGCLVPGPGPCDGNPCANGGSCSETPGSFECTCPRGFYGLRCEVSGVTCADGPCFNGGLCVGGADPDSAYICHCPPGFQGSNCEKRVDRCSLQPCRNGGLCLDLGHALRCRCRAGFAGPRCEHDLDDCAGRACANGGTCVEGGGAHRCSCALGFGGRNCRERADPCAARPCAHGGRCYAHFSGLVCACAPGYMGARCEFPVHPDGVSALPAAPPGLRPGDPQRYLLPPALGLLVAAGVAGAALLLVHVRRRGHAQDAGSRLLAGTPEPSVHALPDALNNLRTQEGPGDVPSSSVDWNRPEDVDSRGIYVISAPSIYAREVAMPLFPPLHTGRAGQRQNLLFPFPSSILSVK
Assay: flow cytometry, cynoDLL3/CHO-s cells
Protocol: as §1

| Binder | EC50 [nM] |
| --- | --- |
| B1 | 5.01 |
| B2 | 4.92 |
| B3 | 4.92 |

Molecular target: T3, hDLL3 (ECD)-strep twin, biotinylated (human, UniProt Q9NYJ7 27-492, biotinylated)
T3 construct: The entry carries a signal peptide (marked only by a dotted line); also called Biotinylated DLL3 antigen; human DLL3 protein
Assay: ELISA, biotinylated antigen on streptavidin
Protocol: (§2) Streptavidin (abcam, ab136200, 1 μg/mL) was plated at 100 μL/well, and the plates were incubated overnight at 4° C. The plates were washed 3 times with 250 μL of PBST solution (PBS containing 0.1% Tween 20) per well. The plates were blocked with 250 μL of 5% milk per well at 37° C. for 2 h. The plates were washed 3 times with 250 μL of PBST solution per well. Biotinylated DLL3 antigen (1 μg/mL) (SEQ ID NO: 9) was added, and the plates were incubated at 37° C. for 1 h. The plates were washed 3 times with 250 μL of PBST solution per well. Antibodies (maximum concentration 400 nM, serially diluted 4-fold) were formulated, and incubation was performed at 37° C. for 1 h. The plates were washed 6 times with 250 μL of PBST solution per well. […] The plates were washed 6 times with 250 μL of PBST solution per well. TMB (KPL, 5120-0077) substrate solution was added at 100 μL/well, and color development was performed at room temperature for 5-10 min. 1 M H₂SO₄ was added at 100 μL/well to stop the color development, and microplate reader (Molecular Devices, VERSA max) readings at 450 nm were taken.

| Binder | EC50 [nM] |
| --- | --- |
| B1 | 0.11 |
| B2 | 0.08 |
| B3 | 0.07 |

Molecular target: T3, hDLL3 (ECD)-strep twin, biotinylated
Assay: ELISA, biotinylated antigen on streptavidin, OD450
Protocol: as §2

| Binder | Emax |
| --- | --- |
| B1 | 0.45 |
| B2 | 0.48 |
| B3 | 0.48 |

Molecular target: T4, DLL4 (ACRO, DL4-H5227) (human, UniProt Q9NR61 27-524)
T4 construct: Bought; also called human DLL4
Assay: ELISA, DLL4 coated at 1 µg/mL, detection with anti-human IgG (H+L)-HRP, OD450
Protocol: as §2, with “DLL1 (ACRO, DL1-H52H8, 1” for “Streptavidin (abcam, ab136200, 1”, “μg/mL) and DLL4 (ACRO, DL4-H5227, 1 μg/mL) were” for “μg/mL) was”, “well. Test antibodies (maximum concentration 100 nM, serially diluted 4-fold) were” for “well. Biotinylated DLL3 antigen (1 μg/mL) (SEQ ID NO: 9) was”, “incubated” for “incubated at 37° C. for 1 h. The plates were washed 3 times with 250 μL of PBST solution per well. Antibodies (maximum concentration 400 nM, serially diluted 4-fold) were formulated, and incubation was performed”

T4 sequence (Q9NR61 27-524 limits assumed): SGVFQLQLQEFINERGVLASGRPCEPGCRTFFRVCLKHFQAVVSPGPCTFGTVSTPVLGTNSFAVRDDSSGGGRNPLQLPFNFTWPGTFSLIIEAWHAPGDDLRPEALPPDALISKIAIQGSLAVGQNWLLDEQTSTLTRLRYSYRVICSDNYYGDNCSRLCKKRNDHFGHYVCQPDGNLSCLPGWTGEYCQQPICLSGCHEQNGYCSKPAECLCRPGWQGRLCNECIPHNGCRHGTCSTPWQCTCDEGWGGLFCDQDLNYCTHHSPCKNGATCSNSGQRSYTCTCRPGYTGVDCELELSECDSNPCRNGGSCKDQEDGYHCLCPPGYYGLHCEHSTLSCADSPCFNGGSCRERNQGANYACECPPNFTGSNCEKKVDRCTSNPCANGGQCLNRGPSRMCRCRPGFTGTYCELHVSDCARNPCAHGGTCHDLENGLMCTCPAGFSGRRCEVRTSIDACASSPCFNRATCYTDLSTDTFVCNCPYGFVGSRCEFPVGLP

| Binder | binding result |
| --- | --- |
| B1 | no binding (tested: log[antibody, nM] 2 (100 nM)) |
| B2 | no binding (tested: log[antibody, nM] 2 (100 nM)) |
| B3 | no binding (tested: log[antibody, nM] 2 (100 nM)) |
